The source of these data is US20260243776A1 (LEIBNIZ INSTITUT F R ALTERNSFORSCHUNG FRITZ LIPMANN …, published 2026).

One test deals with BRD2 (human, UniProt P25440 1-801, limits assumed). The test can be described thus: proximity biotinylation in HEK293T cells treated with the PROTAC KB02-JQ1 (10 uM), with or without MG132; recruitment induced by the small molecule.
Another test concerns the target BRD3 (human, UniProt Q15059 2-726, limits assumed). Described as above.

Sequence of BRD3 (Q15059 2-726 limits assumed): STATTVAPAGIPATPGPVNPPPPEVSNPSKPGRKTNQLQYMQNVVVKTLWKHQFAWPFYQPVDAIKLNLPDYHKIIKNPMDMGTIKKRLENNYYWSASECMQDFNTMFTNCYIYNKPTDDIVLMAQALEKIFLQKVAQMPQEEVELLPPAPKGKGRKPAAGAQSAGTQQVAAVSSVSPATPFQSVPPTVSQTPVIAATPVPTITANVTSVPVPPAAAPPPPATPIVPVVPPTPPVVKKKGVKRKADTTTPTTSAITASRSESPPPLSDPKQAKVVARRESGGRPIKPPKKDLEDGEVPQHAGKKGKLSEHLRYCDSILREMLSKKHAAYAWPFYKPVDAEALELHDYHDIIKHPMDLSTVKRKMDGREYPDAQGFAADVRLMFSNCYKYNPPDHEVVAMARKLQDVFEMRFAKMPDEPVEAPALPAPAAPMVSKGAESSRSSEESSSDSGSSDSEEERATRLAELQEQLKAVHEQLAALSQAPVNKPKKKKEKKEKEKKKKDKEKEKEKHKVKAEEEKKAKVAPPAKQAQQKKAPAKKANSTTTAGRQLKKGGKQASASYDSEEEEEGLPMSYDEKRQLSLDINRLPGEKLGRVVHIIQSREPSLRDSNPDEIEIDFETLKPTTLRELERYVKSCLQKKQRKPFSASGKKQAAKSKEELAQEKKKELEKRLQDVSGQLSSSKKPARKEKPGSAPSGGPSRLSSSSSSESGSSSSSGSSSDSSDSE
Sequence of BRD2 (P25440 whole entry): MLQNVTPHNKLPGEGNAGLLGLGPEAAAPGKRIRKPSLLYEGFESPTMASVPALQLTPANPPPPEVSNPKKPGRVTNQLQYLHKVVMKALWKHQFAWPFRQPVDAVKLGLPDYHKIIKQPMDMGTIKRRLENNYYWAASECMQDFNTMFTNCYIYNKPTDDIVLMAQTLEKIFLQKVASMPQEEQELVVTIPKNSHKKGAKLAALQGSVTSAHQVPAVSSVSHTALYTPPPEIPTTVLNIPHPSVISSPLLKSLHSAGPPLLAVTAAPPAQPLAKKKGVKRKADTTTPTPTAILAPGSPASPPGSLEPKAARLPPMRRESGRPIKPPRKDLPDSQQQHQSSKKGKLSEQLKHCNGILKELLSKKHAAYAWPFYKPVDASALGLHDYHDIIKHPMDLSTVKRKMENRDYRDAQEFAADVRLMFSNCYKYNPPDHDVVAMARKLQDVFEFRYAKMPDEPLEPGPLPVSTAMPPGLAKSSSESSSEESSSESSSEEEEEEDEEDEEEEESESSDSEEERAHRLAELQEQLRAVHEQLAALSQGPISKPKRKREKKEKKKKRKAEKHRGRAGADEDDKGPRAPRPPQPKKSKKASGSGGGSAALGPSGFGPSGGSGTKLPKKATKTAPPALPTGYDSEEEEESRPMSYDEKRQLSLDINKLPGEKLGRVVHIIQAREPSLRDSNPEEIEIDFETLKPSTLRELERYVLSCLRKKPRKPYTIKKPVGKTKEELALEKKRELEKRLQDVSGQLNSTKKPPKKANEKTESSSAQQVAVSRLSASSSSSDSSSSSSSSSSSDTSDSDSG
Method for BRD2: (§1) The expression of BirA* or miniTurbo fusion proteins were induced by a single addition of tetracycline stock (solved in ethanol) exposing the cells to its final concentration of 1 μg/μl in total for 4 days. 2 hours (miniTurbo lines) or 24 hours (BirA* lines) prior to cell harvesting, 50 μM biotin was added to the culture media. […] Upon treatment, cells were washed 3×times with PBS and harvested by trypsinization. For each sample, a pellet corresponding to 20 million cells was collected and snap-frozen in liquid nitrogen.
Method for BRD3: as §1

B1: PSMA4-miniTurbo-FLAG (other)
chain: MSRRYDSRTTIFSPEGRLYQVEYAMEAIGHAGTCLGILANDGVLLAAERRNIHKLLDEVFFSEKIYKLNEDMACSVAGITSDANVLTNELRLIAQRYLLQYQEPIPCEQLVTALCDIKQAYTQFGGKRPFGVSLLYIGWDKHYGFQLYQSDPSGNYGGWKATCIGNNSAAAVSMLKQDYKEGEMTLKSALALAIKVLNKTMDVSKLSAEKVEIATLTRENGKTVIRVLKQKEVEQLIKKHEEEEAKAEREKKEKEQKEKDKYPTFLYKVVDSRMASIPLLNAKQILGQLDGGSVAVLPVVDSTNQYLLDRIGELKSGDACIAEYQQAGRGSRGRKWFSPFGANLYLSMFWRLKRGPAAIGLGPVIGIVMAEALRKLGADKVRVKWPNDLYLQDRKLAGILVELAGITGDAAQIVIGAGINVAMRRVEESVVNQGWITLQEAGINLDRNTLAAMLIRELRAALELFEQEGLAPYLSRWEKLDNFINRPVKLIIGDKEIFGISRGIDKQGALLLEQDGVIKPWMGGEISLRSAEKLQDDYKDDDDK
notes: also called A4-mT; PSMA4_miniTurboID
B1: the binding result in the test with BRD2 and with BRD3 was “binds” in each case.
